Measured values taken from patent US20250043002A1.

Biological target: human PD1 expressed on Jurkat/AP1-Luc/hPD1 cells (human) (UniProt Q15116)
Test: cell-based or functional assay

Chain of human PD1 expressed on Jurkat/AP1-Luc/hPD1 cells (human) (Q15116 25-288): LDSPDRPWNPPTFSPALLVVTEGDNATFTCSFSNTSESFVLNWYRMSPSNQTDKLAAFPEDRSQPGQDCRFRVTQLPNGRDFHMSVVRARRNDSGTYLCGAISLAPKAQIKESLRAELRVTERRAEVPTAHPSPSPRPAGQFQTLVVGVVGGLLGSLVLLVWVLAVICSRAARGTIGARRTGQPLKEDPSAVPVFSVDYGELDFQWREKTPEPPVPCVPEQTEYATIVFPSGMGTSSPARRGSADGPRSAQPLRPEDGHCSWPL

B1: REGN2810 (cemiplimab, LIBTAYO), anti-PD1 antibody (antibody, INN chains, looked up, V domains shown)
VH: EVQLLESGGVLVQPGGSLRLSCAASGFTFSNFGMTWVRQAPGKGLEWVSGISGGGRDTYFADSVKGRFTISRDNSKNTLYLQMNSLKGEDTAVYYCVKWGNIYFDYWGQGTLVTVSS
VL: DIQMTQSPSSLSASVGDSITITCRASLSINTFLNWYQQKPGKAPNLLIYAASSLHGGVPSRFSGSGSGTDFTLTIRTLQPEDFATYYCQQSSNTPFTFGPGTVVDFR
In the case of B1, the AP-1 luciferase EC50, WSU-DLCL2/hPD-L1 + Jurkat/AP1-Luc/hPD1 is reported as 0.29 nM and the AP-1 luciferase MAX (RLU), WSU-DLCL2/hPD-L1 + Jurkat/AP1-Luc/hPD1 is reported as 1.1e+06 RLU.
